{"source": "paper doi:10.1101/2024.09.11.612445", "about": "(bioRxiv, 2024)", "key": {"recombinant CSTF3 21-549 [1]": {"target": "T1, recombinant CSTF3 21-549 (human, UniProt Q12996 21-549)", "T1 sequence (looked up)": "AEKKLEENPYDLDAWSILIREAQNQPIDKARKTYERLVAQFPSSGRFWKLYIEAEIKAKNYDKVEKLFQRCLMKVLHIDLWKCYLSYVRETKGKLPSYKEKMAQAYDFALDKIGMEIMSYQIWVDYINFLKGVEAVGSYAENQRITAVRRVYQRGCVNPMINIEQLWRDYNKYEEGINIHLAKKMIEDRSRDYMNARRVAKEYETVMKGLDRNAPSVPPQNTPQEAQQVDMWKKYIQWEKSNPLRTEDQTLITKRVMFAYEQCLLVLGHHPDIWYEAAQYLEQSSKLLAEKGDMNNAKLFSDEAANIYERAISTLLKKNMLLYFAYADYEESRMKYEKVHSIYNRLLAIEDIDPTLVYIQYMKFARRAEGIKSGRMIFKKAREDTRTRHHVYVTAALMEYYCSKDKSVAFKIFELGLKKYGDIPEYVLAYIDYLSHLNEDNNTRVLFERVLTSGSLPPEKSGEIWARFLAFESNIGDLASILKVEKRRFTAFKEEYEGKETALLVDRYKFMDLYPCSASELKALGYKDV", "assay": "pull-down"}, "recombinant CSTF3 21-549 [2]": {"target": "T1, recombinant CSTF3 21-549", "assay": "ITC"}}}
{"binder": "GST-WDR33 431-485 wild-type (domain or fragment, human, UniProt Q9C0J8 431-485, looked up) DDLEPNSLAVIPGMGIPEQLKLAMEQEQMGKDESNEIEMTIPGLDWGMEEVMQKD", "values": [{"measurement": "binding result", "setting": "recombinant CSTF3 21-549 [1]", "value": "binds"}]}
{"binder": "SPTVDDEEEMLYGDS (peptide, UniProt Q10570 737-751, looked up)", "note": "[CPSF1 737-751 wild-type peptide]", "values": [{"measurement": "binding result", "setting": "recombinant CSTF3 21-549 [2]", "value": "binds"}]}
